# Test results published in IntAct's records for PubMed 20558380.
# B1: Vang-like protein 2 (Homo sapiens), Q9ULK5 (parent)
# chain: MDTESQYSGYSYKSGHSRSSRKHRDRRDRHRSKSRDGGRGDKSVTIQAPGEPLLDNESTRGDERDDNWGETTTVVTGTSEHSISHDDLTRIAKDMEDSVPLDCSRHLGVAAGATLALLSFLTPLAFLLLPPLLWREELEPCGTACEGLFISVAFKLLILLLGSWALFFRRPKASLPRVFVLRALLMVLVFLLVVSYWLFYGVRILDARERSYQGVVQFAVSLVDALLFVHYLAVVLLELRQLQPQFTLKVVRSTDGASRFYNVGHLSIQRVAVWILEKYYHDFPVYNPALLNLPKSVLAKKVSGFKVYSLGEENSTNNSTGQSRAVIAAAARRRDNSHNEYYYEEAEHERRVRKRRARLVVAVEEAFTHIKRLQEEEQKNPREVMDPREAAQAIFASMARAMQKYLRTTKQQPYHTMESILQHLEFCITHDMTPKAFLERYLAAGPTIQYHKERWLAKQWTLVSEEPVTNGLKDGIVFLLKRQDFSLVVSTKKVPFFKLSEEFVDPKSHKFVMRLQSETSV
# partner: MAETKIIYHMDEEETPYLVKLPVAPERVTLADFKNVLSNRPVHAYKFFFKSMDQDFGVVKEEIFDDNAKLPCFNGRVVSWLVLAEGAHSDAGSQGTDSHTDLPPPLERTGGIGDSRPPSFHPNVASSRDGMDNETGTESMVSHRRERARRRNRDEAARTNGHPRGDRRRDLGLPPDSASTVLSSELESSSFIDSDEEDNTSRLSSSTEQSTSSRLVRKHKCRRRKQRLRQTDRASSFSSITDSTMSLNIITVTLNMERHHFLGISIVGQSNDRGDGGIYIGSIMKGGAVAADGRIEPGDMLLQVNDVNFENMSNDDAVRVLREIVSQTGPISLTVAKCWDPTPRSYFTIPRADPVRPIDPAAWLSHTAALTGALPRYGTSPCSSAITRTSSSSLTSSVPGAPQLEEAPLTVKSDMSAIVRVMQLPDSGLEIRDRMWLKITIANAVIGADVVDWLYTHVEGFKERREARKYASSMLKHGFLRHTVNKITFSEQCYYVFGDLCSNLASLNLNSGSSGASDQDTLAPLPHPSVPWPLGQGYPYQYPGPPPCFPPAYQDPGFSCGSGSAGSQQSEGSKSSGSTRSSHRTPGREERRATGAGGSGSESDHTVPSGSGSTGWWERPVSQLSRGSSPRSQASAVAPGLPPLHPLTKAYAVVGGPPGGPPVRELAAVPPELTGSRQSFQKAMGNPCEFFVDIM
# B2: Vang-like protein 2 (Homo sapiens), Q9ULK5 (parent)
# chain: B1 chain
# partner: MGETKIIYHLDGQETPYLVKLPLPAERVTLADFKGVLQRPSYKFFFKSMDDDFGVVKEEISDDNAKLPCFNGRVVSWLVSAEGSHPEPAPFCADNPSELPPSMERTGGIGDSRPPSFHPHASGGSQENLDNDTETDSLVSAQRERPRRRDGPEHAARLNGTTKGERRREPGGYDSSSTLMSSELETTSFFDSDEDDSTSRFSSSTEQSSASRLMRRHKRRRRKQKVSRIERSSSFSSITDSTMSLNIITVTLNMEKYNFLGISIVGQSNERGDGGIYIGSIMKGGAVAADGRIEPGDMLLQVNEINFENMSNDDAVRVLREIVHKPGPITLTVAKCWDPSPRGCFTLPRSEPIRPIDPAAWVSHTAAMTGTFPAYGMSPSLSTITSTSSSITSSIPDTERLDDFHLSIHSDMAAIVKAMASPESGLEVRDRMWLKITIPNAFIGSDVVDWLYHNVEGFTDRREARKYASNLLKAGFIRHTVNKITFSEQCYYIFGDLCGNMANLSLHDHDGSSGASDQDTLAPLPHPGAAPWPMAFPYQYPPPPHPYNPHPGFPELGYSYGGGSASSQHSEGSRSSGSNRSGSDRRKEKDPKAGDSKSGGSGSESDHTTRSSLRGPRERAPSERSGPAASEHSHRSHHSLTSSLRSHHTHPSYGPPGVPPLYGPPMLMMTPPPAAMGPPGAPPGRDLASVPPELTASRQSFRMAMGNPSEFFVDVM
# B3: Vang-like protein 2 (Homo sapiens), Q9ULK5 (parent)
# chain: B1 chain
# partner: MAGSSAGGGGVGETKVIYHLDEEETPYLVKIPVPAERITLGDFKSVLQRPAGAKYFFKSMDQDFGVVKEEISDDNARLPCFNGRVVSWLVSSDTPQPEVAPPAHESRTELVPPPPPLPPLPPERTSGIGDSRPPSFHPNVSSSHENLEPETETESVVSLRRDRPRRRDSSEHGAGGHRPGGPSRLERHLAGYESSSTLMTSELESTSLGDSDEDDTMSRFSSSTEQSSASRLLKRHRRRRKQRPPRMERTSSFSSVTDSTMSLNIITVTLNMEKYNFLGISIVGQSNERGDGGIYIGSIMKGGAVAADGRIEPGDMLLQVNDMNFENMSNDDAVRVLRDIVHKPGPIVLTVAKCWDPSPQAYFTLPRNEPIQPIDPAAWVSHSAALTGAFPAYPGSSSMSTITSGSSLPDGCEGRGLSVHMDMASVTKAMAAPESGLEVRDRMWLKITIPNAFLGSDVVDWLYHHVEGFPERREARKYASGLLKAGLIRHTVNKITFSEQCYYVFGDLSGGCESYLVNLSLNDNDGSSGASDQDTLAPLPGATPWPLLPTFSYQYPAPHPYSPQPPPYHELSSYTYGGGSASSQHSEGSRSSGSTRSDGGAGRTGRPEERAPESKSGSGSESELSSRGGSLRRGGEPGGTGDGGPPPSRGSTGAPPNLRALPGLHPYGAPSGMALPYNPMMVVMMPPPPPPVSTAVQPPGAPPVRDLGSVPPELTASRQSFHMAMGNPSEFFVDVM
# Variants of: B1
# Details: with dvl1_mouse Dvl1, P51141
row,effect of a mutation on the interaction,Variant
1,decreasing interaction,R353C
2,disrupting interaction,F437S
3,disrupting interaction,D255E
4,disrupting interaction,S464N

# Variants of: B2
# Details: with dvl3_mouse Dvl3, Q61062
row,effect of a mutation on the interaction,Variant
1,disrupting interaction,S464N
2,disrupting interaction,F437S
3,disrupting interaction,D255E
4,decreasing interaction,R353C

# Variants of: B3
# Details: with dvl2_mouse Dvl2, Q60838
row,Variant,effect of a mutation on the interaction
1,R353C,decreasing interaction
2,D255E,disrupting interaction

# Now from value to variant:
row,effect of a mutation on the interaction,Variant
1,disrupting interaction,F437S
2,disrupting interaction,S464N
